Measurements from paper PMC4357722, “A novel endonuclease that may be responsible for damaged DNA base repair in Pyrococcus furiosus”.

Target: T1, PfuEndoQ (PF1551) (Pyrococcus furiosus, UniProt Q8U0N5 1-424)
T1 sequence: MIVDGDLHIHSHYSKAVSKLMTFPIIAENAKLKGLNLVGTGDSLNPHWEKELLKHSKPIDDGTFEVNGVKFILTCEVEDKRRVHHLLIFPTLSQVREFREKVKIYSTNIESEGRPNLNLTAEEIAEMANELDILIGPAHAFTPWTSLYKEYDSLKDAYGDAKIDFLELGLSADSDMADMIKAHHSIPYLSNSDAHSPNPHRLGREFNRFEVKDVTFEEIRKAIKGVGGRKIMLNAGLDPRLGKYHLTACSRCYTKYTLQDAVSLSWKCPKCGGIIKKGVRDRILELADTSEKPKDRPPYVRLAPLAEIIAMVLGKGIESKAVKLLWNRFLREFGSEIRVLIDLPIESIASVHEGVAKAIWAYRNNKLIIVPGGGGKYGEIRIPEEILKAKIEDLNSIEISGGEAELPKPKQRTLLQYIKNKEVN
Assay: EMSA; 1 mM Mg2+; 60 C; EMSA: 50 mM Tris-HCl pH 8.0, 1 mM MgCl2, 1 mM DTT, 0.01% Tween 20, 60 C 10 min, 5 nM DNA, 0-50 nM protein; 4% PAGE in TBE
Conditions: protein: recombinant; tags: none (untagged; native stop codon in the reverse primer, pET21d); blunt

B1: 45N dsDNA (normal duplex) (dsDNA)
DNA 1: CGAACTGCCTGGAATCCTGACGACATGTAGCGAACGATCACCTCA
DNA 2: TGAGGTGATCGTTCGCTACATGTCGTCAGGATTCCAGGCAGTTCG
binding result: no binding
